Data reported in patent US20120253017A1.
Values belong to the substance of their own block, whether it stands above or below them.

Assays:
[1] = biological target: mouse c-kit (recombinant, on BIAcore chip) (mouse) (UniProt P05532); assay: BIAcore, mouse cKIT on high density CM5 chip
[2] = biological target: human Stem Cell Factor, 6xHIS tag (human) (UniProt P21583); assay: BIAcore, SCF on CM5 chip
[3] = biological target: mouse Stem Cell Factor, 6xHIS tag (mouse) (UniProt P20826); assay: BIAcore, SCF on CM5 chip
mouse Stem Cell Factor, 6xHIS tag (mouse), sequence (P20826 26-190 limits assumed): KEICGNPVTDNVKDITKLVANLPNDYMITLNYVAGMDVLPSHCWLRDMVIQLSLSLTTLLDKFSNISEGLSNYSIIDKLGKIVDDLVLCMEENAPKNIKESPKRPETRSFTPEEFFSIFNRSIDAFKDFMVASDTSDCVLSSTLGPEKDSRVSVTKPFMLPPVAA

[4] = biological target: mouse Stem Cell Factor, 6xHIS tag (mouse) (UniProt P20826); assay: BIAcore, SCF on high density CM5 chip
[5] = biological target: rat Stem Cell Factor, GlySerHis(6) tag (rat) (UniProt P21581); assay: BIAcore, SCF on high density CM5 chip
rat Stem Cell Factor, GlySerHis(6) tag (rat), sequence (P21581 other isoform, or with tags, fused parts or gaps limits assumed): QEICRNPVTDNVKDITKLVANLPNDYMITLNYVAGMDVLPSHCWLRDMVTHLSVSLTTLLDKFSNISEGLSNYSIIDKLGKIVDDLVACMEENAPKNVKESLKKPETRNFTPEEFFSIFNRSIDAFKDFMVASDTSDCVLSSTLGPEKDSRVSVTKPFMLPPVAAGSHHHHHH

human Stem Cell Factor, 6xHIS tag (human), sequence (P21583 26-190 limits assumed): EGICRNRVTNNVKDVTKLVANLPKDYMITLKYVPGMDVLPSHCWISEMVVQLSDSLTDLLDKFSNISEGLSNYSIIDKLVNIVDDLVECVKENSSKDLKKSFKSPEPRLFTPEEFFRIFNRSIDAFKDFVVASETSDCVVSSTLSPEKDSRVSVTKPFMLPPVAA

response (RU) [1]: 100 RU
Substance: anti mouse cKIT antibody clone 2B8

Kd [2]: 9.78 nM
Kd [3]: 15 nM
Substance: Cyno cKIT ECD-Fc (from UniProt O95905) (Fc fusion)

Kd [4]: 26 nM
Kd [5]: 81 nM
Substance: mcKIT GNNK+ E207A (from UniProt P05532 25-527) (Fc fusion)
